According to the DeepSol protein solubility set:

Assay: soluble on expression in E. coli; label from the status in PepcDB or PDB records

Question: For “MAANGVATLNSSGKLAQMPSASDVGALPITGGEMQGALKLKANQYGGSGPADEKYALDCQNSNIVNVNRILTADPAGSASEGWGFQREDDPDAYDVIWASNGTLYFTPGFKYNTPPYPANQRVLATTDNIALTNYLRQEYNKLKESEGTPTLNDIINGFGFCYNDSSNGAGLDGTYLTVSGMLDNKYRLQLLGQYNGSNWLAYRTRNGDEQSWNPWHKVLTDNINAAISARHQYTSSSYPQIYGNGILQLGGDSRNEYGVVLRSNGTDEANAFRPSVNAGTTGHLYLGVANQKWRAVFAQNGTIQTSDRNAKHDITDLDPEKITAFIMGLKPSSYVFNDADSGRTHWGLISQDIEELFPQLGMTSMDFAGFIKSPKTEDYYEDVPETVTDEETGEEKTVTRKELKTRTVEGEYIYSLRYDEFIAPLICMVQRQQRQIEYLERRLSASESKEEAKLEHHHHHH”, which “soluble on expression in E. coli” value is on record?
Answer: not soluble

Question: Which “soluble on expression in E. coli” value does the source give for “MAANIQQQFGEQLLRAAQVVEEQIDQEMNKLENLEEDDLEVIRRQRMEQMKKAQKDRIEMLSHGHGKYEEVADEKEFFEATKKSDKVVCLFYLPGNFRCKIVDKHFEILARKHVGTRFIHVNAEKVHFLTTRLNIRVIPSIAIVVKQQTVDYIRGFDELGGKDEFTTETMENRLARSEVLTVEKKHTAPAKKKIIRSGVEEYDNEEDW” here?
Answer: not soluble

Question: For “MAAPAAVRRGGRSTSSAMAMDSGRPVTSGILASLCEQWQNQPRTPLSHRSGNLPMSDPDVLIIGAGHNGLTCAAYLARAGLKVKVVERRNVVGGAAVTQEFHPGFRNSVAAYTVSLLNPKVIADLKLHEHGLRIVERKAQNFLPAPDGQYLLTGSNTTAASLARLSAHDAAAFGGFAAELETIADVLRHFVLRAPPNLVVQFGLPAIRESLNALETANRLRALTMEQQRLLLDLFTCSAGEMLDARFEHDLVKALFGFDAIVGNYASPYAAGSAYVMLHHAFGEVNGKKGVWGHAIGGMGAITSAMAAAARAAGAEIETSAGVREVLVEKDRVVGVTLDDGRNVRARFVASNVNPKLLYTRLLPQDALPDDVRRRMQNWKTGSGTFRMNVALSRLPSFTALPGDGDHLTAGIIIAPSLGYMDRAYQDARAHGWSREPVVEMLIPSTLDDSLAPKGQHVASLFCQHVAPELPDGASWDDHRDEVADLMIATVDRYAPGFAASVLGRQILSPLDLEREFGLVGGDIFHGALSLNQLFSARPLLGHADYRGPLKGLYHCGSGAHPGGGVTGAPGHNAAAAILNDHRSLFASRGLEHHHHHH”, which “soluble on expression in E. coli” value is on record?
Answer: not soluble

Question: With “MAAPLGGMFSGQPPGPPQAPPGLPGQASLLQAAPGAPRPSSSTLVDELESSFEACFASLVSQDYVNGTDQEEIRTGVDQCIQKFLDIARQTECFFLQKRLQLSVQKPEQVIKEDVSELRNELQRKDALVQKHLTKLRHWQQVLEDINVQHKKPADIPQGSLAYLEQASANIPAPLKPTLEHHHHHH” as the sequence, how does the “soluble on expression in E. coli” value read?
Answer: not soluble

Question: For “MAAQKSALILLPPEDAEEIEVIVTGDVLVRGGLQVLYAGSSTEPVKCAKGARIVPDVALKDVKNKTFDIIIIPGGPGCSKLAECPVIGELLKTQVKSGGLIGAICAGPTVLLAHGIVAERVTCHYTVKDKMTEGGYKYLDDNVVISDRVITSKGPGTAFEFALKIVETLEGPEKTNSLLKPLCLAK”, which “soluble on expression in E. coli” value is on record?
Answer: not soluble

Question: Which “soluble on expression in E. coli” value does the source give for “MAASRDIFAPDFRRRPYWWEGYEPPECGEDTLPASADVAIVGGGYTGVCCALALREAGIEAVVLEAGRPGEGASTRSGGQVSGGVNVQKKALAAVGESAGQRAERLAARLRDAAASMAYVESLIERYAIECGWRRTGRLTTMWVPAHYQSWQARLDQLNACTGSQARMIPREELAAEIGSSVYHGAALIEHAGHLQPAQLYGGMLRAARDAGARVLGRTPVERIERRAGGYDVHTARGTVRAGQVVIATIGYTGANLGGLKRRIVPVCTHMIATEALPPDLAASLLPTNRAVSESRRVVNHYRLSPDGRRLLFGGRARFVPTDEATTARLLYRAMLKRFPQLAGTRITHSWGGNVAMTLDSMPHIGGADGLHYALGCNGSGVAMMSYLGHCVGRKIATQSGEPINAFDMGEIPGHPFYFGNPWFLFAIGSWYQARDAYDHWRARLEHHHHHH” here?
Answer: soluble

Question: With “MAATRAYHHGDLRRSVLSAALEVIRSDGVAAISLRDLARRAEVSHAAPAHHFKDKAGLLTAIATEGFELLAAALTAVPAGTTHRLREMGVRYVEFALDHPAHFDVMFRPQLLHVGDPELTAARERASRALASGVEDLPDMRAGLDARRAGLTAWSLAHGFATLQLGGSLPPLDDDPAEAFRALVADRLVVRLP” as the sequence, how does the “soluble on expression in E. coli” value read?
Answer: not soluble

Question: Which “soluble on expression in E. coli” value does the source give for “MACVDISPLSYESVKSVVKYLSLKKREQINLSIPAYHKTAKLAPFKLENVGLSDLYIEVNDRTWTLSETDIIGCTLVLYRSNGYNFQHIISITPEVAFQKLISEYLRNGTRIKKFHLYALPSLLKNVELHVSELKIDGCDYETFAKFRKFIDHNQKILKEIGFVVRQNTLWMFDEQLVKNSKEIYLQFPYYNPVPLDDMLLRLKNNHVHIIYLGFPIEKLQELAMNWIDTKKPIGTSLFLVVEHYTYVIDVFEHLTKYSKAIPSRLTDLGTSFFSHCVTMHIDESSELVLFGGPMVIEWKPFKWTLRMTIMKRGSTISK” here?
Answer: not soluble

Question: With “MADANATICYLNGLSLHTINEVEKILLALPKKGDRCEVQMSKPLNRCIGRSTGDVIASRSVQIRDEPKPLSLSPQKSEQEIKKSSKSKKLSEDCCLRSIKERVEIVETRNGSDAFGAKKLQYKVLTDQVRVSPIVSCNGVTLELDVEVTIPDRDEKKKLKLEIDRTLSVLILSIRNH” as the sequence, how does the “soluble on expression in E. coli” value read?
Answer: not soluble

Question: Which “soluble on expression in E. coli” value does the source give for “MADANATICYLNGLSLHTINEVEKILLALPKKGDRCEVQVTKPLNGTIGRSTGDVIASKSMQIHDEPRPLSLSPPLQKSEKSSKSKKLSEYSCMSSTKEQMETVEIRNGSNASAAKKLQCKVLTDQVRVSPIVSCNGVILELDVEVTIPDREEKKKLKLEIECPDFVPARIKIGNKWKKIV” here?
Answer: not soluble

Question: For “MADFITRAIELDEQYSQAILGINDQNLKVLENLLDCTIFVRGTRATLSGRDFEVSRGIRVLQELQSMAKRGHAISPDAVKNAVAIVAEDTPHSVNAVLASDIVARRGKVIRAKTLGQKDYVDAIDHNTIVFGLGPAGSGKTYLAMAKAVQALQAKQVNRIILTRPAVEAGEKLGFLPGTLNEKIDPYLRPLHDALRDMVDPEIIPKLMEAGIVEVAPLAYMRGRTLNDAFVILDEAQNTTPAQMKMFLTRLGFGSKMVVTGDITQVDLPGGQKSGLRLVRDILRGVEGVHFAELGSDDVVRHQLVGRIVDAYDAYEEQLKDK”, which “soluble on expression in E. coli” value is on record?
Answer: not soluble

Question: With “MADLFNKHLKKATNRTKEKLLEGIGKAKATQDEVFDQHAANLNKQSKSCEKLHKDVKNYSSALRTLLSAEKQLRDTIRDAYEPEWPDREHLTAIFDNLDIQTNELEKTVCDDLPQTVTQYVNQFPDLKKKIEKRGRKLVDYDSAKNSFNSVKASSKKDNDPKLAKATMELQAAEQMYTEMNNELLEILPAVFDSRITFFVDTLQTLFNANSVYQTDASKFHKQIVMQLDKLGESMDYLRVARPEARALTPIDTTSLASSDAPATPDQNKSDNSSLRQTPSPSVLPSPVPAPMAKPRESVVSMANSTNPFDDDDAEHDKEATPTDVEEKFEAKVYPKLNAQQTAAAEQAIAAAKREKKEASNPFDDEDDESTEVEEAPKKKDPEPTPKPLDGITNEKRKTLYFVTSTHNYKAVDTDELSFEQGVQIKVIEANEDDQLDDGWRLGELEDGKRGVFPENFTKKV” as the sequence, how does the “soluble on expression in E. coli” value read?
Answer: not soluble

Question: For “MADNWGSENVVADAAPATEAPEVALFGKWSLQSVNVSDISLVDYIPVKEKSAKYLPHSAGRFQVRRFRKAACPIVERLANSLMMHGRNNGKKLMTVRIVKHAFEIIYLLTGENPVQVLVNAVINSGPREDSTRIGRAGTVRRQAVDVAPLRRVNQAIWLLCTGAREAAFRNVKTIAECLADELINAAKGSSNSYAIKKKDELERVAKSNR”, which “soluble on expression in E. coli” value is on record?
Answer: not soluble

Question: Which “soluble on expression in E. coli” value does the source give for “MAEIQFSKGVAETVVPEVRLSKSKNGQSGMAKFYFLEPTILAKESTDDITGMYLIDDEGEIITREVKGKFINGRPTAIEATVILNSQPEWDRFMRFMERYGAENGLGFSKSELEHHHHHH” here?
Answer: soluble

Question: Which “soluble on expression in E. coli” value does the source give for “MAEKKLLLGDEAIALGAIHAGISGVYAYPGTPSTEITEFIQNNRLAKERKLHSTWCTNEKTAMEAALGMSYAGKRALVCMKHVGMNVAADAFVNSAITGVNGGLVVLAADDPSMHSSQNEQDSRFYGKFAMIPMLEPSSQQEAYDMMDYAYTLSEKLKLPVLMRVVTRLAHSRAGVEVADIREENQLNPD” here?
Answer: soluble

Question: Which “soluble on expression in E. coli” value does the source give for “MAELEKTFALIKPDAVRAGKAQEIMQLIELNGFTIIAKQKLQLTRARAEEFYGEHKGKEFFPKLVNFMTSGPIWALVLAKPGAILAWRALMGPTNVFKARAEQPKCLRALYGTDGTQNATHGSDSPISAAREIKFFFPTLSGDPTIYAEPTAAAEYITKRIQPALAKALAALAREKPSADKFEAITFVAGYLLQNNPNKPKVLMPDEWDPALMGDDEDDEADFINARLAAPTGNDGATKAEFDAMVEAAKADTGGAAPAQEFVYPDSKPTTPVVPAPPAPGSKPPSASGARPQSARPTSARPPSASAAPPAPLAPVPPPASSSRPASGSGRPPSATARPPSATPPPPPPAVELEEADDPAQLDEAATKVQAAFRGYQARKEVAVMRSEAQPGEAAAEPEQEAELQPEAEPEPQPEGEQEPQPQASASSSFLPDGVTEEMAAEAATRVQAHMRGHLARKQVAAIKAQQAAPAVAESSEALAEPEPQPEAEAEPQPQASVSSSFLPDGVTEEMAAEAATLVQAHMRGHLARKQVAAIKAQQAAPAVAESSEAQAEAEQTEAEAEPQPDAEAEAGAAEGEAEPEPEAAE” here?
Answer: not soluble

Question: Which “soluble on expression in E. coli” value does the source give for “MAEPKYAIIINDIKRLISDGTFKPGEKIYSEDELKKKYNVSNTTVVRALHELVRAGILARYQGKGTYVSKSIINEEVIFNEYTTVPNGKFNRKTKIANEHTKVVAINEIQDARIAKNLQIPPENMIVHFQRIRLIDDVPWTVQNNYMAKANLINVDLTNFERFNSLSEVIKELYGINILHEAMKERIQVEFPVKDKNNFKLLEIDSELPLYHIERITYVPEGQPYEYIESYLRHNFYSIEIEKKKQ” here?
Answer: not soluble

Question: For “MAEQLEFFPVASPCRGICQSDERGFCRGCMRSRDERFNWQKMSDVEKQNVLRLCRQRFLRKIRANKPLPSEDPQQPSLF”, which “soluble on expression in E. coli” value is on record?
Answer: not soluble

Question: Which “soluble on expression in E. coli” value does the source give for “MAEQLSPGKAVDQVCTFLFKKPGRKGAAGRRKRPACDPEPGESGSSSDEGCTVVRPEKKRVTHNPMIQKTRDSGKQKAAYGDLSSEEEEENEPESLGVVYKSTRSAKPVGPEDMGATAVYELDTEKERDAQAIFERSQKIQEELRGKEDDKIYRGINNYQKYMKPKDTSMGNASSGMVRKGPIRAPEHLRATVRWDYQPDICKDYKETGFCGFGDSCKFLHDRSDYKHGWQIERELDEGRYGVYEDENYEVGSDDEEIPFKCFICRQSFQNPVVTKCRHYFCESCALQHFRTTPRCYVCDQQTNGVFNPAKELIAKLEKHRATGEGGASDLPEDPDEDAIPIT” here?
Answer: soluble

Question: With “MAESVEKLEDGIVRSAEQVSSQIRAAKDAIASVIFGQDRVIENTLVTILSGGHALLIGVPGLAKTKLVETLGVTLGLDAKRIQFTPDLMPSDILGAEVLDESTAGKRSFRFIAGPVFAQLLMADEINRASPRTQSALLQAMQEQHITVAGARHDLPKPFHVLATQNPLEQEGTYPLPEAQLDRFLMEIDVDYPDRDAERRILFETTGAEETLAKGSMTADALITAQRLIRRLPVGDSVVEAILSLVRSARPGPDSGETGKFIAWGPGPRASQSLMLAVRARALIDGRLAPSVDDVLDLAEPILKHRMALTFQARAEGRTIPDVIRQLKTRIGLEHHHHHH” as the sequence, how does the “soluble on expression in E. coli” value read?
Answer: soluble

Question: For “MAFALWYSLQERAPVVERSLKVPLQVVGLGEGRRALGLPREVLLRLRGPAPLLEGRALPVSAYLDLSGAEGEVVREVRVAAPQGVEVLEVVPARVGVVVEVEAQRQIPVEVLAQGAWVLTDPAFVEAVGPESQVEAAVSAVGLDLGDEVVLFPFGPEGPLEGVELRPNRVRVVERREALFLKEVPLSLKPPPGRRLLDYAPKTVRLVGPREALEGLAGVAATLQEALGPGEVEVAVAPDLPPGVQTLGPVRVRVALE”, which “soluble on expression in E. coli” value is on record?
Answer: soluble
